T1: mouse VEGF (mouse, UniProt Q00731-2 27-190, limits assumed)
T1 construct: In indirect ELISA (source not described) and in mouse 3LL tumor sections
T1 sequence (looked up): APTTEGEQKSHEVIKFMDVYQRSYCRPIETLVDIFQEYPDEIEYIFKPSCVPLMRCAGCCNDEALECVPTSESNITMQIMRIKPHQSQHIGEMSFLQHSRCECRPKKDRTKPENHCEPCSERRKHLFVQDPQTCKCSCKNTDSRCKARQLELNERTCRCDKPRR


Key:
[1] = molecular target: T2, recombinant human VEGF165 (human, UniProt P15692 27-191); experiment: ELISA on VEGF coated wells, HRP-labelled anti-mouse IgG and OPD
T2 construct: mature; Secreted VEGF is described as an obligate dimer; also called free VEGF; VEGF-biotin

mouse VEGF = molecular target: T1, mouse VEGF; experiment: indirect ELISA
[2] = molecular target: T2, recombinant human VEGF165; experiment: printed as 'Affinity'; estimated by ELISA and surface plasmon resonance analysis
[3] = molecular target: T2, recombinant human VEGF165; experiment: capture ELISA: biotinylated VEGF titrated onto wells coated with the antibody, peroxidase-avidin; concentration giving 50% maximal binding
VEGF:sFlk-1 complex = molecular target: T3, VEGF:sFlk-1 complex (human; mouse, UniProt P15692 27-191; P35918 20-762, limits assumed, biotinylated); experiment: capture ELISA: biotinylated sFlk-1 complexed with VEGF titrated onto wells coated with the antibody; concentration giving 50% maximal binding
T3 construct: mature;extracellular domain; also called VEGF:receptor complex
T3 sequence (P35918 20-762 limits assumed, one chain of several): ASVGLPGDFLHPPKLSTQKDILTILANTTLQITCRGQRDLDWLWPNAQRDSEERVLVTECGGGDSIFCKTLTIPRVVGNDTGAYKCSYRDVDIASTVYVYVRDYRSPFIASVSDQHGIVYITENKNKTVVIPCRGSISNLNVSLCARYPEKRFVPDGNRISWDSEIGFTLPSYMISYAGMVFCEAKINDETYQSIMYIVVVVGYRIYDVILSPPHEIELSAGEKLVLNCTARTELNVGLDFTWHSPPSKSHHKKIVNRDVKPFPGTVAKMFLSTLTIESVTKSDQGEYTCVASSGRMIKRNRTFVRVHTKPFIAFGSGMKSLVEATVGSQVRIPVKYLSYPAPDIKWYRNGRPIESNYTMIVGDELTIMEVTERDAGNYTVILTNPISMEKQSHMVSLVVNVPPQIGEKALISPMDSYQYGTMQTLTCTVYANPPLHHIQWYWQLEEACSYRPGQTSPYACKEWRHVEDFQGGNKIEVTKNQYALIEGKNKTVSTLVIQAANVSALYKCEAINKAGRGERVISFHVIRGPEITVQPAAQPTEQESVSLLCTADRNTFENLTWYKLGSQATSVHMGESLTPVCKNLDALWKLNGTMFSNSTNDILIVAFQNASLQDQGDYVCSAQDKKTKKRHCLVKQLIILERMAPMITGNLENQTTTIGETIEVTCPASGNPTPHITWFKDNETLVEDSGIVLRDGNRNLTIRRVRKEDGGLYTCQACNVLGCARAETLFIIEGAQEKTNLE

| Binder | EC50 [1] [nM] | binding result (mouse VEGF) | Kd [2] [nM] | EC50 [3] [nM] | EC50 (VEGF:sFlk-1 complex) [nM] |
| --- | --- | --- | --- | --- | --- |
| 2C3-GUS conjugate (other, SATA-modified, deacetylated; SMCC-modified IgG, linked by thioether to SATA-modified GUS, Chemical conjugate of 2C3 IgG (mouse IgG2a,k) and 6-His GUS; GUS runs as a tetramer of about 300 kDa on gel filtration; not shown: N-terminal 6x histidine tag encoded by vector H6pQE60) VH: KLQVQLQESGPELVKPGASVKMSCKASGYTFTSYVFHWVKQKPGQGLEWIGYINPYNDVTKYNEKFKGKATLTSDKSSSTAYMELSSLTSEDSAVYYCASYYGSSYGYYAMDDWGQGTTVTVSSGGG VL: DIQLTQSPASLSVSAGEKVTMSCKSSQSLLNSGNQKNYLAWYQQKPGQPPKLLIHGASTRESGVPDRFTGSGSGTDFTLTISSVQAEDLAVYYCQNDYSYPLTFGAGTKLELKRL MLRPVETPTREIKKLDGLWAFSLDRENCGIDQRWWESALQESRAIAVPGSFNDQFADADIRNYAGNVWYQREVFIPKGWAGQRIVLRFDAVTHYGKVWVNNQEVMEHQGGYTPFEADVTPYVIAGKSVRITVCVNNELNWQTIPPGMVITDENGKKKQSYFHDFFNYAGIHRSVMLYTTPNTWVDDITVVTHVAQDCNHASVDWQVVANGDVSVELRDADQQVVATGQGTSGTLQVVNPHLWQPGEGYLYELCVTAKSQTECDIYPLRVGIRSVAVKGEQFLINHKPFYFTGFGRHEDADLRGKGFDNVLMVHDHALMDWIGANSYRTSHYPYAEEMLDWADEHGIVVIDETAAVGFNLSLGIGFEAGNKPKELYSEEAVNGETQQAHLQAIKELIARDKNHPSVVMWSIANEPDTRPQGAREYFAPLAEATRKLDPTRPITCVNVMFCDAHTDTISDLFDVLCLNRYYGWYVQSGDLETAEKVLEKELLAWQEKLHQPIIITEYGVDTLAGLHSMYTDMWSEEYQCAWLDMYHRVFDRVSAVVGEQVWNFADFATSQGILRVGGNKKGIFTRDRKPKSAAFLLQKRWTGMNFGEKPQQGGKQ | 0.1 |  |  |  |  |
| monoclonal antibody 2C3 (ATCC PTA 1595) (antibody, V domains shown, also called 2C3 IgG) VH: QVQLQESGPELVKPGASVKMSCKASGYTFTSYVFHWVKQKPGQGLEWIGYINPYNDVTKYNEKFKGKATLTSDKSSSTAYMELSSLTSEDSAVYYCASYYGSSYGYYAMDDWGQGTTVTVSS VL: DIQLTQSPASLSVSAGEKVTMSCKSSQSLLNSGNQKNYLAWYQQKPGQPPKLLIHGASTRESGVPDRFTGSGSGTDFTLTISSVQAEDLAVYYCQNDYSYPLTFGAGTKLELKR |  | no binding | 1 | 1 | 150 |
